This is an account of results in patent US20240158512A1 (TRUEBINDING, published 2024).

As usually defined, the Kd is the concentration at which binding is half-saturated. The low end stands for a tighter complex, the high end for a looser complex. A word on the IC50: it is the concentration that inhibits the measured activity by half. Read a high IC50 as weaker potency in that assay.

For experiment [1], the target named is T1, Galectin-3 (UniProt P17931 1-250, limits assumed).
T1 construct: Target of the anti-Gal3 antibody TB006; also called Gal3; GAL3
Put plainly: BLI; after 40 C for 14 days.

The target in experiment [2] is T1, Galectin-3. Description: ELISA (Biological Activity); long-term stability 5 C, 0 months. On the technique in general: In an ELISA, binding on a coated surface is turned into a signal by an enzyme label.
Experiment [3] addresses T1, Galectin-3. Put plainly: BLI; after 4 C for 18 months. Background: BLI is a label-free optical method that tracks binding on a fibre tip over time.
Experiment [4] deals with T1, Galectin-3. Put plainly: BLI; after 3 freeze/thaws, 100% vol. of container.
Experiment [5] deals with T1, Galectin-3. Description: BLI (Binding Activity); long-term stability 5 C, 0 months; 5° C. long-term table, 0 months, Batch No. 095I0720.
In experiment [6] the target is T1, Galectin-3. Put plainly: BLI; after 25 C for 6 months.
Experiment [7] deals with T1, Galectin-3. Description: BLI; after -80 C for 18 months.
In experiment [8] the target is T1, Galectin-3. Put plainly: BLI; Time 0 (control).
Experiment [9] has as its target T1, Galectin-3. Description: BLI; after 4 C for 9 months.
For experiment [10], the target named is T1, Galectin-3. Description: BLI; after 3 freeze/thaws, 75% vol. of container.
For experiment [11], the target named is T1, Galectin-3. Put plainly: BLI; after 40 C for 21 days.
Experiment [12] deals with T2, Galectin-3 (Gal3) (UniProt P17931 1-250, limits assumed).
T2 construct: Target of TB006
Put plainly: BLI; 20 mg/mL DS after 25 C for 14 days. In a few lines:
(§1)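 Each sample was taken either at time zero or after a stress step: shear from agitation, repeated freeze-thaw cycles, or storage at set temperatures, among them 40° C and cryogenic storage. The dissociation constant (Kd) for Galectin-3 binding came from biolayer interferometry.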

Experiment [13] has as its target T2, Galectin-3 (Gal3). Description: BLI; 50 mg/mL DS after 25 C for 14 days.
Experiment [14] concerns the target T2, Galectin-3 (Gal3). Description: BLI; 50 mg/mL DS after 4 C for 9 months.
Experiment [15] addresses T2, Galectin-3 (Gal3). Description: BLI; 50 mg/mL DS after -80 C for 1 month.
The target in experiment [16] is T2, Galectin-3 (Gal3). Put plainly: BLI; 20 mg/mL DS after 40 C for 28 days.
For experiment [17], the target named is T2, Galectin-3 (Gal3). Put plainly: BLI; 50 mg/mL DS after -80 C for 12 months.
Experiment [18] concerns the target T2, Galectin-3 (Gal3). Put plainly: BLI; 50 mg/mL DS after 40 C for 28 days.
Experiment [19] addresses T2, Galectin-3 (Gal3). Description: BLI; 50 mg/mL DS after 4 C for 12 months.
Experiment [20] addresses T2, Galectin-3 (Gal3). Description: BLI; 20 mg/mL DS after -80 C for 12 months. The gist of the method: as §1
Experiment [21] addresses T2, Galectin-3 (Gal3). Description: BLI; 50 mg/mL DS after 25 C for 1 month.
The target in experiment [22] is T2, Galectin-3 (Gal3). Put plainly: BLI; 20 mg/mL DS after -80 C for 6 months. The gist of the method:
as §1

In experiment [23] the target is T2, Galectin-3 (Gal3). Put plainly: BLI; 20 mg/mL DS after 25 C for 9 months.
Experiment [24] has as its target T2, Galectin-3 (Gal3). Description: BLI; 20 mg/mL DS after 4 C for 12 months. The gist of the method: as §1
In experiment [25] the target is T2, Galectin-3 (Gal3). Description: BLI; 50 mg/mL DS after 25 C for 6 months.
Experiment [26] concerns the target T2, Galectin-3 (Gal3). Description: BLI; 20 mg/mL DS after 4 C for 9 months. The gist of the method: as §1
Experiment [27] deals with T2, Galectin-3 (Gal3). Description: BLI; 50 mg/mL DS after agitation for 3 days.
The target of experiment [28] is T2, Galectin-3 (Gal3). Put plainly: BLI; 50 mg/mL DS after 5 freeze/thaws.
The target in experiment [29] is T2, Galectin-3 (Gal3). Put plainly: BLI; 20 mg/mL DS after 40 C for 7 days.
In experiment [30] the target is T2, Galectin-3 (Gal3). Put plainly: BLI; 20 mg/mL DS after 25 C for 1 month. In a few lines:
as §1

Experiment [31] deals with T2, Galectin-3 (Gal3). Description: BLI; 20 mg/mL DS after agitation for 3 days. The gist of the method:
as §1

Experiment [32] has as its target T2, Galectin-3 (Gal3). Put plainly: BLI; 50 mg/mL DS after 4 C for 6 months.

T1 sequence (P17931 whole entry): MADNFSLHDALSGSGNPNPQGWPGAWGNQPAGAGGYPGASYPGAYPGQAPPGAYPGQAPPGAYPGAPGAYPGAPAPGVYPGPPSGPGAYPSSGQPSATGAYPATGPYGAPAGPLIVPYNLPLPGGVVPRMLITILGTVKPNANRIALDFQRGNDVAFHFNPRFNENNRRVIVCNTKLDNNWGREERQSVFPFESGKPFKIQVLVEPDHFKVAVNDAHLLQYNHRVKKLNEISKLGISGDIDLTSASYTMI
T2 sequence (P17931 whole entry): as above

B1: TB006 (antibody, human IgG4 S228P, kappa, V domains shown)
VH: QVQLVQSGAEVKKPGASVKVSCKASGYSFTNYYMHWVRQAPGQRLEWMGWIYPGSGNTNYNEKFQGRVTITADTSASTAYMELSSLRSEDTAVYYCSTAPGGFDVWGQGTTVTVSS
VL: DIVMTQTPLSLSVTPGQPASISCKSSKSLLHSDGITYLYWYLQKPGQSPQLLIYRMSNLASGVPDRFSGSGSGTDFTLKISRVEAEDVGVYYCAQMLEFPLTFGQGTKLEIKR
notes: Tested as formulated drug substance or drug product in 20 mM L-histidine, 5 mM methionine, 100 mM NaCl, 0.02% polysorbate 80, pH 5.8, or diluted in 0.9% saline; also called 4A11.H3L1; IMT006a
As for B1, the dissociation constant (Kd) in [1] is 2.5 nM; in [3], 2.1 nM; in experiment [4], 2.7 nM; in experiment [5] it was 3 nM; in experiment [6] it was 2.6 nM; in experiment [7] it was 2 nM. In addition, the Kd in [8] was found to be 2.8 nM; in [9] it was 2.2 nM; in experiment [10], 2.6 nM; in experiment [11], 2.8 nM. In addition, the midpoint of inhibition in [2], the IC50, lay at 2.5 mg/L.

B2: TB006 (antibody, human IgG4 S228P, kappa, V domains shown)
VH: QVQLVQSGAEVKKPGASVKVSCKASGYSFTNYYMHWVRQAPGQRLEWMGWIYPGSGNTNYNEKFQGRVTITADTSASTAYMELSSLRSEDTAVYYCSTAPGGFDVWGQGTTVTVSS
VL: DIVMTQTPLSLSVTPGQPASISCKSSKSLLHSDGITYLYWYLQKPGQSPQLLIYRMSNLASGVPDRFSGSGSGTDFTLKISRVEAEDVGVYYCAQMLEFPLTFGQGTKLEIKR
notes: Full antibody tested as drug substance (DS) in 20 mM L-histidine, 5 mM methionine, 100 mM NaCl, 0.02% polysorbate-80, pH 5.8; also called 4A11.H3L1; IMT006a
As to B2, the Kd in [12] stood at 2.7 nM; in [13] it was 3.1 nM; in [14] it was 2.8 nM; in experiment [15], 2.3 nM; in [16], 3.8 nM; in experiment [17] it was 3.5 nM. In addition, the dissociation constant (Kd) in [18] stood at 2.3 nM; in experiment [19], 3.7 nM; in experiment [20], 2.7 nM; in [21], 2.2 nM; in experiment [22], 2.7 nM; in [23], 2.1 nM. Also, the Kd in experiment [24] came out at 2.7 nM; in experiment [25], 2.4 nM; in [26] it was 1.9 nM; in experiment [27], 3.7 nM; in [28], 2.6 nM; in experiment [29], 2.9 nM. In addition, the equilibrium dissociation constant (Kd) in experiment [30] was found to be 3.9 nM; in [31], 3.4 nM; in experiment [32] it was 2.1 nM.
